Experimental data published in US9404098, “Method for cleaving a target RNA using a Cas6 polypeptide” (University of Georgia Research Foundation, Inc.).
Substitutions are numbered along the chain they refer to.

Experiments:
PfCas6 (PF1131) [1] = target: T1, PfCas6 (PF1131) (Pyrococcus furiosus, UniProt Q8U1S4 SEQ:1-264); assay: EMSA; 0-500 nM Cas6, 70 C, 250 mM KCl, 1.5 mM MgCl2; conditions: tags: N-terminal 6xHis; label: 32P uniform
T1 sequence: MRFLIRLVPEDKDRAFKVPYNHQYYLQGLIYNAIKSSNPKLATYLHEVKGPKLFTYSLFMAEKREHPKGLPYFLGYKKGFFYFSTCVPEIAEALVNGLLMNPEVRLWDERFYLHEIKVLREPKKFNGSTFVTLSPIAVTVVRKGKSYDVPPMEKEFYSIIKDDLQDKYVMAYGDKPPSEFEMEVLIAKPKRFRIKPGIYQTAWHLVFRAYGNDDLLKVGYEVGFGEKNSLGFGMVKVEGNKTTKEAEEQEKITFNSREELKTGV
Description: Figure 3: FIG. 3. Identification of the site of PfCas6 cleavage within the CRISPR repeat RNA. (A) The site of PfCas6 cleavage within the CRISPR repeat RNA was mapped by incubating 5' end labeled repeat RNA with PfCas6 nuclease and comparing the size of the 5' RNA cleavage product (arrow) with RNAse T1 (T1) and alkaline hydrolysis (OH) sequence ladders. (B) Potential secondary structure of P. furiosus repeat RNA (SEQ ID No: 238) with cleavage site indicated. (C) Analysis of cleavage of wild-type and cleavage site mutant (AA to GG) repeat RNAs with increasing concentrations (0, 1, 50, 200, and 500 nM) of PfCas6. (D) Native gel mobility shift analysis of wild-type and mutant repeat RNAs with increasing concentrations of PfCas6. The positions of the free (RNA) and protein-bound (RNP) RNAs are indicated. 5' and 3' cleavage products are indicated in both C and D. The sizes of RNA markers (M) are indicated in A and C.
Typically, identical reaction conditions were used to assay the ability of PfCas6 protein to bind to and to cleave substrate RNAs. These reactions were initiated by incubating 0.05 μmol of ^32P-radiolabeled RNAs (either uniformly or 5'-end-labeled) with up to 1 (as indicated in the figure legends) of PfCas6 protein in 20 mM HEPES-KOH (pH 7.0), 250 mM KCl, 0.75 mM DTT, 1.5 mM MgCl_2, 5 μg of E. coli tRNA, and 10% glycerol in a 20-μL reaction volume for 30 minutes at 70° C. […]

PfCas6 (PF1131) [2] = target: T1, PfCas6 (PF1131); assay: EMSA; gel-purified; up to 500 nM; conditions: tags: N-terminal 6xHis; label: 32P uniform
Description: (§1) Typically, identical reaction conditions were used to assay the ability of PfCas6 protein to bind to and to cleave substrate RNAs. These reactions were initiated by incubating 0.05 μmol of ^32P-radiolabeled RNAs (either uniformly or 5'-end-labeled) with up to 1 (as indicated in the figure legends) of PfCas6 protein in 20 mM HEPES-KOH (pH 7.0), 250 mM KCl, 0.75 mM DTT, 1.5 mM MgCl_2, 5 μg of E. coli tRNA, and 10% glycerol in a 20-μL reaction volume for 30 minutes at 70° C. Half of the reactions were directly run on native 8% polyacrylamide gels to assay RNA binding by gel mobility shift essentially as described (Baker et al., 2005. Genes & Dev. 19: 1238-1248). […] Gels were dried and the radiolabeled RNAs visualized by phosphorimaging.
(§2) Figure 4: FIG. 4. CRISPR repeat sequence requirements for PfCas6 binding. (A) Detailed analysis of binding with a series of CRISPR-derived RNAs and mutants. The left panel illustrates the RNAs tested, with repeat (R) and invader targeting (ψ) sequences, and PfCas6 cleavage site (dashed lines) indicated. The shaded portion of j denotes an insertion, dashed block denotes an internal deletion, and The shaded portions of **, e, f, and k denote substitutions (with complementary sequence). DNA indicates a DNA repeat sequence substrate. PfCas6 binding is summarized relative to binding to the 5' cleavage product (++++). […]

PfCas6 (PF1131) [3] = target: T1, PfCas6 (PF1131); assay: EMSA; 70 C; conditions: tags: N-terminal 6xHis
Description: as §1
Figure 4: FIG. 4. CRISPR repeat sequence requirements for PfCas6 binding. (A) Detailed analysis of binding with a series of CRISPR-derived RNAs and mutants. The left panel illustrates the RNAs tested, with repeat (R) and invader targeting (ψ) sequences, and PfCas6 cleavage site (dashed lines) indicated. The shaded portion of j denotes an insertion, dashed block denotes an internal deletion, and The shaded portions of **, e, f, and k denote substitutions (with complementary sequence). DNA indicates a DNA repeat sequence substrate. PfCas6 binding is summarized relative to binding to the 5' cleavage product (++++). Corresponding RNA diagrams and data panels are designated with lowercase letters. The right panels show gel mobility shift analysis of the indicated RNAs with increasing concentrations (0, 1, 50, 200, and 500 nM) of PfCas6. Substrates are uniformly radiolabeled except for those shown in panels a, b, c, and 1, which are 5'-end-labeled. (B) PfCas6 interacts with the gel-purified 5' cleavage product.

PfCas6 (PF1131) [4] = target: T1, PfCas6 (PF1131); assay: EMSA; affinity similar to 5' cleavage product; conditions: tags: N-terminal 6xHis; label: 32P
Description: as §1, §2

PfCas6 (PF1131) [5] = target: T1, PfCas6 (PF1131); assay: EMSA; binding to the 5' cleavage product formed during incubation; conditions: tags: N-terminal 6xHis; label: 32P 5' or uniform
Description: as §1, §2

PfCas6 (PF1131) [6] = target: T1, PfCas6 (PF1131); assay: EMSA; binding abolished; up to 500 nM; conditions: tags: N-terminal 6xHis; label: 32P uniform
Description: as §1, §2

PfCas6 (PF1131) [7] = target: T1, PfCas6 (PF1131); assay: EMSA; up to 500 nM; conditions: tags: N-terminal 6xHis; label: 5' 32P
Description: as §1, §2

PfCas6 (PF1131) [8] = target: T1, PfCas6 (PF1131); assay: footprint; nt 2-8 protected from Pb(II); nt 3, 5 and 8 from RNase A; no 3' region protection; 500 mM KCl; conditions: tags: N-terminal 6xHis; label: 32P (5', 3' or uniform); potential weak hairpin, mostly unstructured in solution
Excerpt: Size markers include 5' end-labeled RNA markers (M) and alkaline hydrolysis ladders (OH). Bars along right side of each gel indicate strong protections. (B) 5' end-labeled CRISPR repeat RNA was used for lead-induced and RNase A cleavage as was done in (A). […] (C) A summary of cleavage protection is shown. The Cas6 cleavage site is indicated by an asterisk (*), and the nucleotides protected from cleavage are shown by the bars above and below the sequence FIG. 10. Lead-induced and RNase A cleavage footprinting with CRISPR repeat RNA and PfCas6. (A) 3' end labeled CRISPR repeat RNA was incubated in the absence (RNA) or presence of increasing concentrations of PfCas6 (indicated in μM) and then subjected to RNase A cleavage (left panel) or lead-induced cleavage (right panel). […] Size markers include 5' end-labeled RNA markers (M) and alkaline hydrolysis ladders (OH). Bars along right side of each gel indicate strong protections. (B) 5' end-labeled CRISPR repeat RNA was used for lead-induced and RNase A cleavage as was done in (A). […] (C) A summary of cleavage protection is shown. The Cas6 cleavage site is indicated by an asterisk (*), and the nucleotides protected from cleavage are shown by the bars above and below the sequence (SEQ ID NO: 238). Figure 10:
Specifically, nucleotides 2-8 were protected from lead induced cleavage in a Cas6 concentration dependent manner. […]

PfCas6 K52E = target: T2, PfCas6 K52E (Pyrococcus furiosus, UniProt Q8U1S4 SEQ:1-264, K52E); assay: cleavage_in_vitro; 500 nM; conditions: tags: N-terminal 6xHis; label: 32P (5', 3' or uniform); potential weak hairpin, mostly unstructured in solution
T2 sequence: T1 sequence with K52E
Description: (§3) RNA-binding and cleavage reactions. RNA binding and cleavage reactions were carried out as described in example 1. Briefly, 0.05 μmol of uniformly ^32P-labeled RNA was incubated in the absence (free RNA) or presence of increasing concentrations of Cas6 (as indicated in figure legends) in buffer A for 30 minutes at 65-70° C. Half of each reaction was run on 8% native polyacrylamide gels to assess RNA binding by gel mobility shift analysis. RNA cleavage was assessed by separation of the RNAs on denaturing, 7 M urea containing, 15% polyacrylamide gels following PCI extraction and ethanol precipitation. For analysis of native Cas6 cleavage activity, either ~40 μg of whole cell extract (WCE) or supernatant from an immunoprecipitation reaction (see below) was incubated with 0.05 μmol of uniformly ^32P labeled RNA for 30 minutes at 70° C. Alternatively, 10 μL of resin from an immunoprecipitation reaction (see below) was added. In this case, samples were mixed every five minutes by pipetting up and down during the 30 minute incubation at 70° C. The gels were dried and RNAs visualized by phosphor imaging. Quantitation of cleavage was performed using ImageQuant™ TL software (GE Life Sciences).
(§4) Figure 11: FIG. 11. Cleavage activity of Cas6 mutants. […] The 5' and 3' cleavage products are indicated. (B) Purified wild type (wt) and mutant Cas6 proteins (as indicated above) were separated by SDS-PAGE. Molecular weight markers are indicated in kDa.
(§5) Mutation of any of the three triad amino acids led to a significant decrease or complete loss of cleavage activity relative to wild type Cas6 (FIG. 11A).

PfCas6 K52A = target: T3, PfCas6 K52A (Pyrococcus furiosus, UniProt Q8U1S4 SEQ:1-264, K52A); assay: cleavage_in_vitro; 500 nM; conditions: tags: N-terminal 6xHis; label: 32P (5', 3' or uniform); potential weak hairpin, mostly unstructured in solution
T3 sequence: T1 sequence with K52A
Description: as §3, §4, §5

PfCas6 Y31F = target: T4, PfCas6 Y31F (Pyrococcus furiosus, UniProt Q8U1S4 SEQ:1-264, Y31F); assay: cleavage_in_vitro; 500 nM; conditions: tags: N-terminal 6xHis; label: 32P (5', 3' or uniform); potential weak hairpin, mostly unstructured in solution
T4 sequence: T1 sequence with Y31F
Description: as §3, §4, §5

## GGGUUACAAUAAGACCAAAAUAGGGUUGAAAG (ssRNA) [AA to GG cleavage site mutant repeat]
PfCas6 (PF1131) [1]
  binding result: binds

## AUUGAAAG (ssRNA) [3' cleavage product (repeat nt 23-30)]
PfCas6 (PF1131) [2]
  binding result: no binding

## GGGUUACAAUAAGACCAAAAUAGAAAACUUUC (ssRNA) [sub. 23-30]
PfCas6 (PF1131) [3]; label: 32P uniform
  binding result: binds

B1: guide + first part of repeat (panel c) (ssRNA)
RNA: GGGAUUGAAAGUUGUAGUAUGCGGUCCUUGCGGCUGAGAGCACUUCAGGUUACAAUAAGACCAAAAUAGA
PfCas6 (PF1131) [3]; label: 5' 32P
  binding result: binds

## GUUACAAUAAGA (ssRNA) [repeat nt 1-12]
PfCas6 (PF1131) [4]
  binding result: binds

B2: repeat-guide-repeat (R-g-R) (ssRNA)
RNA: GGGUUCCAAUAAGACUACAAAAGAAUUGAAAGUUGUAGUAUGCGGUCCUUGCGGCUGAGAGCACUUCAGGUUCCAAUAAGACUACCAAAAGAAUUGAAAG
PfCas6 (PF1131) [5]
  binding result: binds

## GGGAAGACCAAAAUAGAAUUGAAAG (ssRNA) [del. 1-8]
PfCas6 (PF1131) [6]
  binding result: no binding

## GGGCAAUGUUAAAGACCAAAAUAGAAUUGAAAG (ssRNA) [sub. 1-8]
PfCas6 (PF1131) [6]
  binding result: no binding

## GTTACAATAAGACCAAAATAGAATTGAAAG (ssDNA, [none]) [DNA repeat]
PfCas6 (PF1131) [7]
  binding result: no binding

## AUUGAAAGUUGUAGUAUGCGGUCCUUGCGGCUGAGAGCACUUCAG (ssRNA) [last 8 nt of repeat + guide]
PfCas6 (PF1131) [7]
  binding result: no binding

## GGGUUACAAUAAGACCAAAAUAG (ssRNA) [del. 23-30]
PfCas6 (PF1131) [3]; label: 32P uniform
  binding result: binds

## GUUACAAUAAGACCAAAAUAGAAUUGAAAG (ssRNA) [CRISPR repeat RNA]
PfCas6 (PF1131) [8]
  binding result: binds
PfCas6 K52E
  activity: > 150 fold reduction vs wild type
PfCas6 K52A
  activity: > 40 fold reduction vs wild type
PfCas6 Y31F
  activity: ~2 fold reduction vs wild type
